Measurements published in the nanobody polyreactivity screen of Harvey et al. (2022).

Test: yeast display, Sf9 membrane polyspecificity reagent, FACS + sequencing; frameworks hold sequencing errors
Method in brief: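 In a synthetic yeast display library (Saccharomyces cerevisiae BJ5465), nanobody expression was induced with galactose for 36–48 hours. FACS gates were set low and high (top ~1%) using anti-HA fluorescence for expression and streptavidin fluorescence for binding of the Sf9 membrane reagent. Each polyreactivity label is drawn from the gate of origin.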
With “QVQLVESGGGLVQAGGSLRLSCAASGRIFNTYAMGWYRQAPGKERELVAAITSSGGSTYYADSVKGRFTISRDNAKNTVYFQMNSLKPEDTAVYYCNAGSLHRRYYYEGDYWGQGTQVTVSS” the “polyreactivity (PSR sort gate)” value was “high polyreactivity”.
In the case of “QVQLVESGGGLVQAGGSLRLSCAASGRIFNVYAMGWYRQAPGKERELVAAITYSGGSTYYADSVKVRITISRDNAKNSVYLQMIFLKPEDTAVYYCNARSSKRSSRGYDYWGQGTQVTVSS”, the “polyreactivity (PSR sort gate)” value is reported as “high polyreactivity”.
In the case of “QVQLVESGGGLVQAGGSLRLSCAASGRIFNWYRMGWYRQAPGKERELVAAISRGGGRTYYADSVKGRFTISRDNAKNTVYLQMNSLKPEDTAVYYCNAVDASHAGPVGGAFRYDYWGQGTQVTVSS”, the “polyreactivity (PSR sort gate)” value is reported as “high polyreactivity”.
With “QVQLVESGGGLVQAGGSLRLSCAASGRIFNYNTMGWYRQAPGKERELVAAINFSGDRTYYADSVKGRFTISRDISKNTVYLQMNSLKPEDTAVYYCAAQGYWYGYQPGNYWGQGTQVTVSS” the “polyreactivity (PSR sort gate)” value was “high polyreactivity”.
For “QVQLVESGGGLVQAGGSLRLSCAASGRIFNYYAMGWYRQAPGKEREFVAAITSGGGSTYYADSVKGRFTISRDNAKNNVYLQMNSLKPEDTAVYYCNARLQSQVDAIGYGYWGQGTQVTVSS”, the “polyreactivity (PSR sort gate)” value was “high polyreactivity”.
In the case of “QVQLVESGGGLVQAGGSLRLSCAASGRIFNYYAMGWYRQAPGKERELVAAISSGGSTYYADSVKGRFTISRDNAKNTVYLQMNSLKPEDTAVYYCAAAYGDYGYWGQGTQVTVSS”, the “polyreactivity (PSR sort gate)” value is reported as “high polyreactivity”.
For “QVQLVESGGGLVQAGGSLRLSCAASGRIFNYYAMGWYRQAPGKERELVAVISRTGVRTHYADSVKGRFTISRDIAKNTVYLQMNRLKPEDTAVDYCNADSYVFRYDYWGQGSQVTVSS”, the “polyreactivity (PSR sort gate)” value was “high polyreactivity”.
For “QVQLVESGGGLVQAGGSLRLSCAASGRIFNYYAMGWYRQAPGTERELVAAISTDGGSTYYADSVKGRFTISRDNAKNSVYLQMNSLKPEDTAVYYCAAYQYYDFSYSYDYWGQGTQVTVSS”, the “polyreactivity (PSR sort gate)” value was “low polyreactivity”.
With “QVQLVESGGGLVQAGGSLRLSCAASGRIFNYYDMGWYRQAPGKERELVAAISSGGTTYYADSVKGRFTISRDNAKNTVYLQMNCLKREDTAVYFCASYYTPQRLRSGKFDYWGQGTQVTVST” the “polyreactivity (PSR sort gate)” value was “high polyreactivity”.
With “QVQLVESGGGLVQAGGSLRLSCAASGRIFPANAMGWYRQAPGKERELVAGITWRGDSTYYADSVKGRFTISRDNAKNTVYLQMNSLKPEDTAVYYCAATFRYTKLYYWGHGTQVTVSS” the “polyreactivity (PSR sort gate)” value was “low polyreactivity”.
For “QVQLVESGGGLVQAGGSLRLSCAASGRIFPANVMGWYRQAPGKERELVATIDNGGGTYYADSVKGRFTISRDNAKNTVYLQMNSLKPEDTAVYYCARDRHVRWGLKMDYWGQGTQVTVSS”, the “polyreactivity (PSR sort gate)” value was “low polyreactivity”.
In the case of “QVQLVESGGGLVQAGGSLRLSCAASGRIFPAYVMGWYRQAPGKERQLVATIDNGGGTYFADSVKGRFTISRDNAKNTVYLQMNRLKPVETAVYYCARDRHVRWGLNMDYWGQGTQVTVSS”, the “polyreactivity (PSR sort gate)” value is reported as “low polyreactivity”.
For “QVQLVESGGGLVQAGGSLRLSCAASGRIFPDNTMGGYRQAPGKERELVAVITYSGGSTYYADSVKGRFTISRDNAKNTVYLKMNSLKPEDTAVYYCAARDYYIWFAEVYYWGQGTQVSVSS”, the “polyreactivity (PSR sort gate)” value was “low polyreactivity”.
For “QVQLVESGGGLVQAGGSLRLSCAASGRIFPEYAMGWYRQAPGKERELVAAITSGGHYADSVKGRFTISRDNAKNTVYLQINSLKPEDTAVYYCSALNVYGSADVTTLEMDYWGQGTLVTVSS”, the “polyreactivity (PSR sort gate)” value was “low polyreactivity”.
In the case of “QVQLVESGGGLVQAGGSLRLSCAASGRIFPFNDMGWYREAPGKEREFVADISDNGGSTYADSVKGRFTISRDNAKNTVYLQMNSLKPEDTAVYYCNAVYTSYRGGYYYWGQGTQGTVSS”, the “polyreactivity (PSR sort gate)” value is reported as “low polyreactivity”.
In the case of “QVQLVESGGGLVQAGGSLRLSCAASGRIFPFYAMGWYRQAPGKERELVAAISTRGGSTYYADSVKGRFTISRDNAKNTVYLQMNSLKPADTAVYYCAADVQAVGYDYWGQGTQVTVSS”, the “polyreactivity (PSR sort gate)” value is reported as “high polyreactivity”.
In the case of “QVQLVESGGGLVQAGGSLRLSCAASGRIFPGYAMGWYRQAPGKERELVAAISSRGGSTYYADSVKGRFTISRDNAKHTVYLQMNSLKPEDTAVYYCAAEPSWWNVFYPGYNYWGQGTQVTVSS”, the “polyreactivity (PSR sort gate)” value is reported as “high polyreactivity”.
For “QVQLVESGGGLVQAGGSLRLSCAASGRIFPGYAMGWYRQAPGKERELVAAISTNGGRTYYADSVKGRFTISRDNAKNTVYLQMNSLKPEDTAVYYCNAARAVYTQKRFDSWGQGTQVTVSS”, the “polyreactivity (PSR sort gate)” value was “high polyreactivity”.
In the case of “QVQLVESGGGLVQAGGSLRLSCAASGRIFPHNAMGWYRQAPGKERELVAAITKSGDDTYYADSVKGRFTISRDNAKNTVYLQMNSLKPEDTAVYYCAAYLSWYDYWGQGTQVTVSS”, the “polyreactivity (PSR sort gate)” value is reported as “low polyreactivity”.
For “QVQLVESGGGLVQAGGSLRLSCAASGRIFPINAMGWYRQAPGKERELVAAISGDGGDTYYADSVKGRFTISRDNAKNTVYLQMNSLKPEDTAVYYCAADALGYDYYYWGQGTQVTVSS”, the “polyreactivity (PSR sort gate)” value was “low polyreactivity”.
In the case of “QVQLVESGGGLVQAGGSLRLSCAASGRIFPINVMGWYRQAPGKERELVAAISGRGGSTYYADSVKGRFTISRDNAKNTVYLQMNSLKPEDTAVYYCAARSPYRYYYWGQGTQVTVSS”, the “polyreactivity (PSR sort gate)” value is reported as “high polyreactivity”.
For “QVQLVESGGGLVQAGGSLRLSCAASGRIFPKYAMGWYRHAPGTERELVGAISGSSGSTYYADSVKGRFTISRDNAKNTVYLQMNSLKPDDTAVYYCAARRYRISKTSGYCGQGTQVTVSS”, the “polyreactivity (PSR sort gate)” value was “high polyreactivity”.
With “QVQLVESGGGLVQAGGSLRLSCAASGRIFPKYAMGWYRQAPGKERELVAAITGIGTSTYYADSVKGRFTISRDNAKNTVYLQMNSLKPEDTAVYYCAADTWTIVDYGYWGQGTQVTVSS” the “polyreactivity (PSR sort gate)” value was “low polyreactivity”.
With “QVQLVESGGGLVQAGGSLRLSCAASGRIFPLYAMGWSRQAPGKERELVAAITSSGGSTYYADSVKGRFTISRDNAKNTVYLQMNSLKPEDTAVYYCAADYSVYWLDYGYWGQGTLVTVSS” the “polyreactivity (PSR sort gate)” value was “low polyreactivity”.
In the case of “QVQLVESGGGLVQAGGSLRLSCAASGRIFPLYDMGWYRQAPGKERELVAAISSGGTTYYADSVKGRFTISRDNAKNTVYLQMNSLKPEDTEVYYCARRPAQRWGRFDYWVQGTQVTVSS”, the “polyreactivity (PSR sort gate)” value is reported as “low polyreactivity”.
For “QVQLVESGGGLVQAGGSLRLSCAASGRIFPRNAMGWYSPAPGKERELVAAITRAGSTYYADSVKGRFTISRDNAKNTVYLQLNSLKPEDTAVYYCNRQWHRDVYGHDYWGQGTQVTVSS”, the “polyreactivity (PSR sort gate)” value was “high polyreactivity”.
With “QVQLVESGGGLVQAGGSLRLSCAASGRIFPRNTMGWYRQAPGKERELVAAISTRGGSTYYADSVKGRSTISRDNAKNNVYLQMNSLKPEDTAVYYCAAGRRFPAIYSTGNYWGQGTQVTVSS” the “polyreactivity (PSR sort gate)” value was “high polyreactivity”.
With “QVQLVESGGGLVQAGGSLRLSCAASGRIFPRNTMGWYRQAPGKEREMVAAISTRGGSTYYADSVKGRFTISRDNAQNTVYLEMNSLKPEDTAVDYSAAGRRFPAIYSTGNYWGQGTQVTVSS” the “polyreactivity (PSR sort gate)” value was “high polyreactivity”.
In the case of “QVQLVESGGGLVQAGGSLRLSCAASGRIFPRYAMGWYRQATGKERELVATISSGGSTYYADSVKGRFTISRDNAKNTVYLQMNSLKPEDTAVYYCAARKRPYTVINGMDYWGQGTQVTVSS”, the “polyreactivity (PSR sort gate)” value is reported as “low polyreactivity”.
In the case of “QVQLVESGGGLVQAGGSLRLSCAASGRIFPSYAMGWYRQAPGKERELVAAISSSGGRTYYADSVKGRFTISRDNAKNTVYLQMNSLKPEDTAVYYCAARWVQYGVRYDYWGQGTQVTVSS”, the “polyreactivity (PSR sort gate)” value is reported as “high polyreactivity”.
For “QVQLVESGGGLVQAGGSLRLSCAASGRIFPSYAMGWYRQAPGKERELVAAITSSDSTYYADSVKGRFTISRDNAKNTVYLQMNSLKPEDTAVYYCAAAYSYSGWWWFGYWGQGTQVTVSS”, the “polyreactivity (PSR sort gate)” value was “high polyreactivity”.
With “QVQLVESGGGLVQAGGSLRLSCAASGRIFPSYDMGWYRQAPGKDRELVATISSRGDSTYYADSVKGRFTISRDNAKNTVYLQMNSLKPEDTAVYYCAAERPFWEYDYWGQGTQVTVSS” the “polyreactivity (PSR sort gate)” value was “low polyreactivity”.
In the case of “QVQLVESGGGLVQAGGSLRLSCAASGRIFPTNAMGWYRQAPGKERELVAAIPVSGGSTYYADSVKGRFTISRDNAKNTVYLQMNSLKPEDTAVYYCAADSSTYRFDYWGQGTQVTVSS”, the “polyreactivity (PSR sort gate)” value is reported as “low polyreactivity”.
For “QVQLVESGGGLVQAGGSLRLSCAASGRIFPTNAMGWYRQAPGKERELVAAIPVSGGSTYYADSVKGRFTISRDNAKNTVYLQMNSLKPEDTAVYYCAVDDRASVGSRLDHWGQGTQVTVSS”, the “polyreactivity (PSR sort gate)” value was “low polyreactivity”.
In the case of “QVQLVESGGGLVQAGGSLRLSCAASGRIFPTNAMGWYRQAPGKERELVASITRSGSTYYADSVKGRFTISRDNAKNTVYLQMNSLKPEDTAVYYCAKRYRYSVGWPVKNSAFGYWGQGTQVTVSS”, the “polyreactivity (PSR sort gate)” value is reported as “low polyreactivity”.
With “QVQLVESGGGLVQAGGSLRLSCAASGRIFPTSTKGWYRQAPGKERELVAAITSGGTTYYADSVKGRVTISRDNAKNTVYLQMNSLKPEDTAVYYCAALRPRRGYYYWGQGTQVTVSS” the “polyreactivity (PSR sort gate)” value was “high polyreactivity”.
With “QVQLVESGGGLVQAGGSLRLSCAASGRIFPVNAMGWYRQAPGKEREFVARISRRGGSTYYADSVKGRFTISRDYEKNTVYLQMNSLKPEDTAVYYCAAVSSRYSYDYWGQGTQVTVSS” the “polyreactivity (PSR sort gate)” value was “high polyreactivity”.
For “QVQLVESGGGLVQAGGSLRLSCAASGRIFPVNTMGWYREAPGKERELVAAITSGGGTYYADSVKGRFTISRDNAKNTVYLQMNSLKPEDTAVYYCNAPEGRKPYDSWGQGTQVTVSS”, the “polyreactivity (PSR sort gate)” value was “low polyreactivity”.
With “QVQLVESGGGLVQAGGSLRLSCAASGRIFPVNTMGWYRQAQGKVRELVAAITSGGGTYYADSVKGRFTISRDNAKNTVYLQMNSLKPEDTAVYYCNAPEGRKPYDSWGQGTQVTVSS” the “polyreactivity (PSR sort gate)” value was “low polyreactivity”.
In the case of “QVQLVESGGGLVQAGGSLRLSCAASGRIFPWNTMGWYRQAPGKERELVAGINNGDRTYYADSVKGRFTISRDNAKNTVYLQMNSLKPEDTAVYYCAVDTWYFLFQYGYYQEGDYWGQGTQVTVSS”, the “polyreactivity (PSR sort gate)” value is reported as “low polyreactivity”.
In the case of “QVQLVESGGGLVQAGGSLRLSCAASGRIFPWNTMGWYRQAPGKERELVAGINNGDRTYYADSVKGRFTISRDNENNTVYLQMNSLKPEDTAVYYCAARSPPSAYTYTTWEYDYWGQGTQVTVSS”, the “polyreactivity (PSR sort gate)” value is reported as “low polyreactivity”.
For “QVQLVESGGGLVQAGGSLRLSCAASGRIFPWYTMGWYRQAPGKERELVAAITSGGNTDYADSVKGRFTISRDNAKNNVYLQMNSLKPEDTAVYYCAAGGYPGTTYYGYDYWGQGTQVTVSS”, the “polyreactivity (PSR sort gate)” value was “low polyreactivity”.
With “QVQLVESGGGLVQAGGSLRLSCAASGRIFPYMGWYRQAPGKERELVAAINASGGRTYYADSVKGRFTISRDNAKNTVYLQMNSLKPEDTAVYYCNAVWSSDTYTHPQYDYWGQGTQVTVSS” the “polyreactivity (PSR sort gate)” value was “high polyreactivity”.
